Experimental data as given in publication PMC12482196.

How the values were obtained:
[1] = test system: T1, MBP-YlAaf1 (Yarrowia lipolytica), ORF:dd6ddf17; assay: EMSA; conditions: 10 mM Tris-HCl pH 7.5, 50 mM NaCl, 0.5 mM EDTA, 1 mM MgCl2, 4% glycerol, 0.5 mM DTT; 300 ng probe, 0-0.5 ug protein in 20 uL; 4% native PAGE in 0.5x TBE at …
T1 sequence: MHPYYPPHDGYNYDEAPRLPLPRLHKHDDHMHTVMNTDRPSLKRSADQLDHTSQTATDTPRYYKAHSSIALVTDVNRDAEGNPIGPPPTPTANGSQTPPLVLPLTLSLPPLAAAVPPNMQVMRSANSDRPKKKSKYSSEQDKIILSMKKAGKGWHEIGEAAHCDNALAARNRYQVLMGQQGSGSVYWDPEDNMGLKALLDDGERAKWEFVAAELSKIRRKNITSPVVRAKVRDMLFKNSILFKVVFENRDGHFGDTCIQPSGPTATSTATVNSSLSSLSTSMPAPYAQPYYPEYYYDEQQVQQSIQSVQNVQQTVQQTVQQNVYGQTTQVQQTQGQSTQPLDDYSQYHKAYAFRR

[2] = target: VC-YlAaf2 (Yarrowia lipolytica); assay: split reporter (BiFC, NanoBiT); BiFC with the N-terminal and C-terminal regions of Venus in S. cerevisiae YEF473A, cells grown at 30°C for 16 h in liquid SC-Ura-His medium, fluorescence microscopy, nucleus by DAPI

Substance | binding [1] | percent of cells with the GFP signal in the nucleus [2]
ACCTCCCTTCGTGGTTTATGACGAAACACGCTTAGCTAAAGTTCTAAAGGCTAATATTACGAACTCTGTGAAAAGGCGAAAAACCACAAAAGGGACGTGTGGTGTTGAAAAGGTGAAAAAGAGAAAACGAAAAGTCTGGCCGAAGTCAAT (double strand) [MHY1 promoter 150-bp probe] | no binding | 
VN-YlAaf1 (natural protein) |  | 17 % of cells
